Measurements: paper PMC1894825, “Transcriptional Regulation of Multi-Drug Tolerance and Antibiotic-Induced Responses by the Histone-Like Protein Lsr2 in M. tuberculosis” (PLoS Pathogens, 2007)

Biological target: the molecule itself
Test: cross-linking

B1: recombinant Lsr2 (M. tuberculosis, Rv3597c) (natural protein)
chain: not shown
notes: also called rLsr2; not shown: His6, N-terminal, kept
- binding result: binds
